Consider twelve molecules from publication PMC6596994 (Nature, 2019).

Where two headings read alike, the source gives them in different places. Ends that are not written are not given here.

Holding throughout (assay): SPR
On the technique in general: Surface plasmon resonance follows binding to a sensor surface in real time, without labels.

The target in experiment [1] is p-hSTING (155–379) (human) (UniProt Q86WV6).
Experiment [2] concerns the target T1, Mouse TBK1 (1–657, S172A) (mouse, UniProt Q9WUN2 1-657, S172A).
T1 sequence: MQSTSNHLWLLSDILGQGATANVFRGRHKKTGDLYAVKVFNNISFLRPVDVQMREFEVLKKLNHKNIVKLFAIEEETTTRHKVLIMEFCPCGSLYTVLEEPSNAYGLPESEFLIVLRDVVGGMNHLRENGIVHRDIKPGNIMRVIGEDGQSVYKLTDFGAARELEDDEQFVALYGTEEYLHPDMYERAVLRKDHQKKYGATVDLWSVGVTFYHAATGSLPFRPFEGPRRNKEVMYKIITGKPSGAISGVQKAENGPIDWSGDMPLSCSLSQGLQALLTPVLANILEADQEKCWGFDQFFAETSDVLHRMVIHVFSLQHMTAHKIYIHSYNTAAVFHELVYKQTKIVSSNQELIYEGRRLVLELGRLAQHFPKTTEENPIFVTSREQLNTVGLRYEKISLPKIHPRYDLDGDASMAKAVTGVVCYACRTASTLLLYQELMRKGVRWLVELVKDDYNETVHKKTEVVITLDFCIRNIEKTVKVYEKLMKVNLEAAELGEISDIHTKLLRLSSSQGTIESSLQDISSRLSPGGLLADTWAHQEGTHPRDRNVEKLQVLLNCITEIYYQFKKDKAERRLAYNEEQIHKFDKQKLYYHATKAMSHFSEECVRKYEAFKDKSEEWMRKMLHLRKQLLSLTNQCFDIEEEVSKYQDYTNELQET

In experiment [3] the target is T2, Human TBK1 (1–657, S172A) (human, UniProt Q9UHD2 1-657, S172A).
T2 sequence: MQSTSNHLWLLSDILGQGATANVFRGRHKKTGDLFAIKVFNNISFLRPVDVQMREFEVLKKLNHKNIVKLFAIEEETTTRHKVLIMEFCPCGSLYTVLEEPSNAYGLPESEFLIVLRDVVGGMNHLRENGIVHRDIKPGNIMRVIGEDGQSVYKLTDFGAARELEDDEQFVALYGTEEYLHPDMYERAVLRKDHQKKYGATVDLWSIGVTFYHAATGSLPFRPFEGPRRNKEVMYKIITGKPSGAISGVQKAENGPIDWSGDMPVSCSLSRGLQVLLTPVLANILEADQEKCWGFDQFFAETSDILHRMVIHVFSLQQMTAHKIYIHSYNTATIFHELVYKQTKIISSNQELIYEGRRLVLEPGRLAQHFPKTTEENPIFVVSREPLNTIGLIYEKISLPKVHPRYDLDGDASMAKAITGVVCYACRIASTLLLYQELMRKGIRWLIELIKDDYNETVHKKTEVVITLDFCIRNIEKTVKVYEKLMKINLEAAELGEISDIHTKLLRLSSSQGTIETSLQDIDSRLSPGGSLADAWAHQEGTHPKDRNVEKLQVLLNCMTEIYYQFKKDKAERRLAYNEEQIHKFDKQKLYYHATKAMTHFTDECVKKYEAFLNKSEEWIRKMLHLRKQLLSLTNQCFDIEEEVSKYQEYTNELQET

The target in experiment [4] is T1, Mouse TBK1 (1–657, S172A). The source holds these as a separate data set.
The target in experiment [5] is T2, Human TBK1 (1–657, S172A). The source holds these as a separate data set.

For the molecule “human TBK1 K584A (from UniProt Q9UHD2 1-657) (domain or fragment)”, in experiment [1], the fold reduction of the binding affinity against wild type TBK1 was determined as 20 fold.
With “human TBK1 Q581A (from UniProt Q9UHD2 1-657) (domain or fragment)”, the fold reduction of the binding affinity against wild type TBK1 in experiment [1] was 20 fold.

B1: hSTING (155–379), unphosphorylated (domain or fragment)
chain: VAHGLAWSYYIGYLRLILPELQARIRTYNQHYNNLLRGAVSQRLYILLPLDCGVPDNLSMADPNIRFLDKLPQQTGDHAGIKDRVYSNSIYELLENGQRAGTCVLEYATPLQTLFAMSQYSQAGFSREDRLEQAKLFCRTLEDILADAPESQNNCRLIAYQEPADDSSFSLSQEVLRHLRQEEKEEVTVGSLKTSAVPSTSTMSQEPELLISGMEKPLPLRTDFS
modifications: biotin on the Avi tag
For the molecule B1, the Kd in experiment [2] was around 170 µM; in experiment [3] it was around 290 µM; in experiment [4], around 260 µM; in experiment [5], around 230 µM.

B2: hSTING (366–379, T376E F378W 3379M) (peptide)
chain: SGMEKPLPLREDWM
modifications: also: biotin on the Avi tag
For B2, the Kd in experiment [2] came to 43.9 µM.

B3: hSTING (155–379, T376E) (domain or fragment)
chain: VAHGLAWSYYIGYLRLILPELQARIRTYNQHYNNLLRGAVSQRLYILLPLDCGVPDNLSMADPNIRFLDKLPQQTGDHAGIKDRVYSNSIYELLENGQRAGTCVLEYATPLQTLFAMSQYSQAGFSREDRLEQAKLFCRTLEDILADAPESQNNCRLIAYQEPADDSSFSLSQEVLRHLRQEEKEEVTVGSLKTSAVPSTSTMSQEPELLISGMEKPLPLREDFS
modifications: biotin on the Avi tag
As to B3, the Kd in experiment [2] was around 62 µM.

B4: p-hSTING (342–379) (peptide)
chain: TWGSLKTSAVPSTSTMSQEPELLISGMEKPLPLRTDFS
Turning to B4, the Kd in experiment [2] was 15.3 µM; in experiment [3] it was 16.8 µM.

B5: p-hSTING (366–379) (peptide)
chain: SGMEKPLPLRTDFS
B5: the Kd in experiment [2] was found to be 30.8 µM; in experiment [3], 35.6 µM.

B6: hSTING (155–379, T376E F378M S379W), biotin-Avi-His6-SUMO fusion (domain or fragment)
chain: VAHGLAWSYYIGYLRLILPELQARIRTYNQHYNNLLRGAVSQRLYILLPLDCGVPDNLSMADPNIRFLDKLPQQTGDHAGIKDRVYSNSIYELLENGQRAGTCVLEYATPLQTLFAMSQYSQAGFSREDRLEQAKLFCRTLEDILADAPESQNNCRLIAYQEPADDSSFSLSQEVLRHLRQEEKEEVTVGSLKTSAVPSTSTMSQEPELLISGMEKPLPLREDMW
modifications: biotin on the Avi tag
As to B6, the values for the Kd in experiment [2] and in experiment [3] were 1.2 µM and 1.4 µM, respectively.

B7: p-hSTING (353–379) (peptide)
chain: STSTMSQEPELLISGMEKPLPLRTDFS
Turning to B7, the Kd in experiment [2] amounted to 25.1 µM; in experiment [3], 22.6 µM.

B8: hSTING (366–379, T376E F378W S379E) (peptide)
chain: SGMEKPLPLREDWE
modifications: also: biotin on the Avi tag
In turn, B8 registered a Kd in experiment [2] of around 127 µM.

B9: hSTING (366–379, T376E F378W S379F) (peptide)
chain: SGMEKPLPLREDWF
modifications: also: biotin on the Avi tag
B9: the Kd in experiment [2] is 27.1 µM.

B10: hSTING (366–379, T376E F378W S379I) (peptide)
chain: SGMEKPLPLREDWI
modifications: also: biotin on the Avi tag
For B10, in experiment [2], the Kd is around 59 µM.

In general, Kd refers to the concentration at which binding is half-saturated. A lower Kd goes with a tighter complex.
